The labels stand for the following.
B1: HESX1 (parent)
chain: ENKPSTCSFSIERILGLDQKKDCV
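Further: lentivirally expressed fusions sorted by FACS into six bins by GFP to DsRed ratio, PSI derived from sequencing read proportions per bin multiplied by bin number.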

The variants in the data set derive from B1. Briefly: protein stability index of a GFP-peptide fusion (GPS, HEK-293T) (PSI 1-6); higher = more stable. The conditions noted are these: c terminus: a fixed tail appended.
For the variant ENKPSNCSFSIERILGLDQKKDCV, the protein stability index came out at 3.06.
For ENKVSTCSFSIERILGLDQKKDCV the value was 3.35; for ENKKSTCSFSIERILGLDQKKDCV, 2.7.
Next, ENKISTCSFSIERILGLDQKKDCV: 3.02; ENKGSTCSFSIERILGLDQKKDCV: 2.84.
For ENKCSTCSFSIERILGLDQKKDCV the value was 2.42; for ENKSSTCSFSIERILGLDQKKDCV, 2.71.
In the case of ENKHSTCSFSIERILGLDQKKDCV, the protein stability index was 2.52.
Next, ENKQSTCSFSIERILGLDQKKDCV: 3.18.
For ENKFSTCSFSIERILGLDQKKDCV, the protein stability index worked out at 2.62.
For ENKYSTCSFSIERILGLDQKKDCV the value was 1.94.
Next, ENKMSTCSFSIERILGLDQKKDCV: 2.99.
Take ENKWSTCSFSIERILGLDQKKDCV: the protein stability index stood at 2.54.
For ENKNSTCSFSIERILGLDQKKDCV the value was 2.79; for ENKTSTCSFSIERILGLDQKKDCV, 3.67; for ENKLSTCSFSIERILGLDQKKDCV, 2.86.
Next, ENKASTCSFSIERILGLDQKKDCV: 2.99; ENKDSTCSFSIERILGLDQKKDCV: 3.86; ENKRSTCSFSIERILGLDQKKDCV: 3.41.
On to ETKPSTCSFSIERILGLDQKKDCV, for which the protein stability index was 2.91.
For EWKPSTCSFSIERILGLDQKKDCV the value was 1.91; for EVKPSTCSFSIERILGLDQKKDCV, 2.88; for ESKPSTCSFSIERILGLDQKKDCV, 2.87.
For the variant EYKPSTCSFSIERILGLDQKKDCV, the protein stability index amounted to 1.77.
On to ENKPSTCSFSIDRILGLDQKKDCV, for which the protein stability index is 3.8.
For ENKPSTCSFSICRILGLDQKKDCV the value was 2.45; for ENKPSTCSFSIRRILGLDQKKDCV, 2.46.
Regarding ENKPSTCSFSIMRILGLDQKKDCV, the protein stability index amounted to 1.86.
As to ENKPSTCSFSIKRILGLDQKKDCV, the protein stability index amounted to 2.86.
Next, ENKPSTCSFSIPRILGLDQKKDCV: 2.94; ENKPSTCSFSILRILGLDQKKDCV: 1.86.
Next, ENKPSTCSFSIQRILGLDQKKDCV: 2.57.
Next, ENKPSTCSFSIGRILGLDQKKDCV: 3.65.
With ENKPSTCSFSIFRILGLDQKKDCV, the protein stability index was 1.63.
Next, ENKPSTCSFSIIRILGLDQKKDCV: 1.61; ENKPSTCSFSINRILGLDQKKDCV: 3.44; ENKPSTCSFSIHRILGLDQKKDCV: 2.47.
As to ENKPSTCMFSIERILGLDQKKDCV, the protein stability index amounted to 3.73.
For ENKPSTCAFSIERILGLDQKKDCV the value was 3.46.
Next, ENKPSTCPFSIERILGLDQKKDCV: 4.2; ENKPSTCEFSIERILGLDQKKDCV: 4.18; ENKPSTCLFSIERILGLDQKKDCV: 3.07.
For ENKPSTCYFSIERILGLDQKKDCV the value was 2.66; for ENKPSTCCFSIERILGLDQKKDCV, 4.28.
With ENKPSTCGFSIERILGLDQKKDCV, the protein stability index was 2.51.
As for ENKPSTCRFSIERILGLDQKKDCV, the protein stability index turned out to be 2.79.
Turning to ENKPSTCWFSIERILGLDQKKDCV, the protein stability index amounted to 2.14.
For the variant ENKPSTCNFSIERILGLDQKKDCV, the protein stability index is 3.07.
Next, ENKPSTCIFSIERILGLDQKKDCV: 2.83; ENKPSTCFFSIERILGLDQKKDCV: 3.04.
Next, ENKPSTCVFSIERILGLDQKKDCV: 3.1.
For ENKPSTCTFSIERILGLDQKKDCV the value was 3.52; for ENKPSTCDFSIERILGLDQKKDCV, 3.88; for ENKPSTCKFSIERILGLDQKKDCV, 2.94.
Take ENKPSTCHFSIERILGLDQKKDCV: the protein stability index is 2.7.
For ENKPSTCQFSIERILGLDQKKDCV the value was 3.23; for ENKPSTCSFSDERILGLDQKKDCV, 4.04; for ENKPSTCSFSTERILGLDQKKDCV, 3.52.
For ENKPSTCSFSGERILGLDQKKDCV the value was 3.13.
Take ENKPSTCSFSAERILGLDQKKDCV: the protein stability index was determined as 3.27.
Next, ENKPSTCSFSLERILGLDQKKDCV: 3.58; ENKPSTCSFSQERILGLDQKKDCV: 3.97.
Next, ENKPSTCSFSVERILGLDQKKDCV: 2.91.
ENKPSTCSFSCERILGLDQKKDCV: the protein stability index amounted to 3.27.
With ENKPSTCSFSSERILGLDQKKDCV, the protein stability index is 4.21.
For ENKPSTCSFSPERILGLDQKKDCV the value was 5.12.
For the variant ENKPSTCSFSKERILGLDQKKDCV, the protein stability index is 4.
For ENKPSTCSFSHERILGLDQKKDCV the value was 3.7.
As to ENKPSTCSFSWERILGLDQKKDCV, the protein stability index was determined as 2.77.
For ENKPSTCSFSEERILGLDQKKDCV the value was 5.05.
For ENKPSTCSFSMERILGLDQKKDCV the value was 3.42; for ENKPSTCSFSRERILGLDQKKDCV, 4.73; for ENKPSTCSFSFERILGLDQKKDCV, 3.06.
Turning to ENKPSTCSFSYERILGLDQKKDCV, the protein stability index was 3.13.
With ENKPSTCSFSNERILGLDQKKDCV, the protein stability index is 4.63.
For ENYPSTCSFSIERILGLDQKKDCV the value was 2.83; for ENHPSTCSFSIERILGLDQKKDCV, 3.42.
For ENWPSTCSFSIERILGLDQKKDCV the value was 2.93; for ENDPSTCSFSIERILGLDQKKDCV, 3.66.
For ENSPSTCSFSIERILGLDQKKDCV the value was 3.84; for ENGPSTCSFSIERILGLDQKKDCV, 3.1; for ENAPSTCSFSIERILGLDQKKDCV, 3.59.
With ENVPSTCSFSIERILGLDQKKDCV, the protein stability index was determined as 2.71.
For ENTPSTCSFSIERILGLDQKKDCV the value was 2.53.
For ENRPSTCSFSIERILGLDQKKDCV, the protein stability index turned out to be 2.58.
Next, ENNPSTCSFSIERILGLDQKKDCV: 3.04.
For ENEPSTCSFSIERILGLDQKKDCV the value was 3.85; for ENLPSTCSFSIERILGLDQKKDCV, 2.35.
For ENIPSTCSFSIERILGLDQKKDCV the value was 2.84; for ENFPSTCSFSIERILGLDQKKDCV, 2.16.
Turning to ENQPSTCSFSIERILGLDQKKDCV, the protein stability index turned out to be 3.41.
As for ENCPSTCSFSIERILGLDQKKDCV, the protein stability index is 2.78.
For ENPPSTCSFSIERILGLDQKKDCV the value was 3.17; for ENMPSTCSFSIERILGLDQKKDCV, 2.92.

Source of the values: the supplement of paper PMC10567573.
